Reference: paper PMC11203719, “Mts1 (S100A4) and Its Peptide Demonstrate Cytotoxic Activity in Complex with Tag7 (PGLYRP1) Peptide” (International Journal of Molecular Sciences, 2024)

Biological target: Mts1 (S100A4) protein, recombinant human (human) (UniProt P26447)
Experiment: MST; Mts1 labelled with Alexa Fluor 633 (200 nM), preincubated 20 min in the dark at room temperature with 16 concentrations of Tag7 or peptide; Monolith NT.115, 10% IR laser power; apparent Kd

Sequence of Mts1 (S100A4) protein, recombinant human (human) (P26447 whole entry): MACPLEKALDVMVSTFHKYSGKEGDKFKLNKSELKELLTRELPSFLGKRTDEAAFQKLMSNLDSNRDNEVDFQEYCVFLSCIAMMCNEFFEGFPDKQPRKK

Kd: 9.21 µM
Substance: Tag7 (PGLYRP1) protein, recombinant (from UniProt O88593 19-182) (natural protein)
